For this series, the system named is Escherichia coli TOP10. The series can be described thus: shrunken log2 fold change of peptide-encoding DNA abundance (4.5 h post-induction vs induction); higher = less antimicrobial activity (less host growth inhibition). The conditions noted are these: time post-induction: 4.5 h; library: site-saturation at positions 5, 18, 19, 20.
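Note: peptides expressed intracellularly from a pBAD plasmid library in pooled LB shake-flask culture, induced with 0.3% L-arabinose, DNA abundance read by NGS, three biological replicates, DESeq2 with apeglm shrinkage.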

For the sequence RRIRWRPPRLPRPRPRPSHTPRP, the “shrunken log2 fold change” value was 0.0847.

Take RRIRSRPPRLPRPRPRPGVLPRP: the “shrunken log2 fold change” value was determined as 0.0866.

Turning to RRIRQRPPRLPRPRPRPAGEPRP, the “shrunken log2 fold change” value is 0.156.

RRIRERPPRLPRPRPRPTRRPRP: the “shrunken log2 fold change” value was 0.059.

For the sequence RRIRCRPPRLPRPRPRPHMWPRP, the “shrunken log2 fold change” value was -0.555.

Turning to RRIRFRPPRLPRPRPRPHWNPRP, the “shrunken log2 fold change” value was -0.653.

As to RRIRCRPPRLPRPRPRPHMQPRP, the “shrunken log2 fold change” value was -0.322.

Consider RRIRSRPPRLPRPRPRPTFLPRP, for which the “shrunken log2 fold change” value was -0.0423.

With RRIRKRPPRLPRPRPRPVWTPRP, the “shrunken log2 fold change” value turned out to be 0.485.

As to RRIRNRPPRLPRPRPRPFTPPRP, the “shrunken log2 fold change” value was -0.197.

RRIRDRPPRLPRPRPRPLKWPRP: the “shrunken log2 fold change” value worked out at 0.0491.

Consider RRIRLRPPRLPRPRPRPPRCPRP, for which the “shrunken log2 fold change” value turned out to be 0.744.

On to RRIRTRPPRLPRPRPRPIVYPRP, for which the “shrunken log2 fold change” value was -0.85.

Consider RRIRDRPPRLPRPRPRPKAYPRP, for which the “shrunken log2 fold change” value was 0.053.

Turning to RRIRRRPPRLPRPRPRPEGNPRP, the “shrunken log2 fold change” value was -0.0565.

In the case of RRIRLRPPRLPRPRPRPAQTPRP, the “shrunken log2 fold change” value is -0.00496.

With RRIRQRPPRLPRPRPRPSDKPRP, the “shrunken log2 fold change” value was -0.341.

Take RRIRLRPPRLPRPRPRPGDMPRP: the “shrunken log2 fold change” value was -0.129.

For the sequence RRIRERPPRLPRPRPRPLTNPRP, the “shrunken log2 fold change” value was -0.242.

For RRIRTRPPRLPRPRPRPMTFPRP, the “shrunken log2 fold change” value is 0.0754.

Take RRIRARPPRLPRPRPRPAQPPRP: the “shrunken log2 fold change” value was 0.723.

For RRIRFRPPRLPRPRPRPRMSPRP, the “shrunken log2 fold change” value is 0.000208.

On to RRIRWRPPRLPRPRPRPEFLPRP, for which the “shrunken log2 fold change” value was 0.374.

As for RRIRWRPPRLPRPRPRPHLPPRP, the “shrunken log2 fold change” value is -0.166.

Turning to RRIRFRPPRLPRPRPRPECKPRP, the “shrunken log2 fold change” value is -0.0133.

Consider RRIRERPPRLPRPRPRPEEDPRP, for which the “shrunken log2 fold change” value is -0.058.

As to RRIRARPPRLPRPRPRPMDDPRP, the “shrunken log2 fold change” value came to 0.197.

For RRIRDRPPRLPRPRPRPQNPPRP, the “shrunken log2 fold change” value is -0.00133.

Regarding RRIRHRPPRLPRPRPRPCVFPRP, the “shrunken log2 fold change” value is -0.0413.

For the sequence RRIRCRPPRLPRPRPRPMRFPRP, the “shrunken log2 fold change” value stood at 0.249.

With RRIRGRPPRLPRPRPRPLPGPRP, the “shrunken log2 fold change” value worked out at 1.01.

In the case of RRIRRRPPRLPRPRPRPYSVPRP, the “shrunken log2 fold change” value was found to be 0.0601.

Regarding RRIRFRPPRLPRPRPRPLFFPRP, the “shrunken log2 fold change” value is -0.259.

As to RRIRIRPPRLPRPRPRPMFKPRP, the “shrunken log2 fold change” value is -0.286.

Regarding RRIRWRPPRLPRPRPRPSTYPRP, the “shrunken log2 fold change” value is -0.0575.

With RRIRMRPPRLPRPRPRPHMAPRP, the “shrunken log2 fold change” value stood at 0.0168.

As to RRIRWRPPRLPRPRPRPCCAPRP, the “shrunken log2 fold change” value worked out at 0.47.

Take RRIRMRPPRLPRPRPRPSFEPRP: the “shrunken log2 fold change” value was found to be 0.318.

RRIRQRPPRLPRPRPRPGEMPRP: the “shrunken log2 fold change” value turned out to be 0.0469.

Regarding RRIRFRPPRLPRPRPRPCRWPRP, the “shrunken log2 fold change” value was found to be 0.0901.

RRIRWRPPRLPRPRPRPGCGPRP: the “shrunken log2 fold change” value turned out to be 0.784.

With RRIRKRPPRLPRPRPRPWLGPRP, the “shrunken log2 fold change” value was found to be 1.57.

As for RRIRVRPPRLPRPRPRPHSHPRP, the “shrunken log2 fold change” value is -0.348.

RRIRMRPPRLPRPRPRPTRQPRP: the “shrunken log2 fold change” value was found to be 0.886.

As for RRIRLRPPRLPRPRPRPFREPRP, the “shrunken log2 fold change” value was -0.0266.

In the case of RRIRVRPPRLPRPRPRPQVLPRP, the “shrunken log2 fold change” value stood at 0.00638.

With RRIRFRPPRLPRPRPRPYCQPRP, the “shrunken log2 fold change” value was -0.131.

As for RRIRNRPPRLPRPRPRPVRSPRP, the “shrunken log2 fold change” value was -0.00792.

As for RRIRIRPPRLPRPRPRPSYEPRP, the “shrunken log2 fold change” value is -0.53.

For the sequence RRIRYRPPRLPRPRPRPRSPPRP, the “shrunken log2 fold change” value came out at 0.0591.

Regarding RRIRKRPPRLPRPRPRPGDCPRP, the “shrunken log2 fold change” value turned out to be 0.106.

Consider RRIRKRPPRLPRPRPRPFQNPRP, for which the “shrunken log2 fold change” value was -0.0235.

Consider RRIRQRPPRLPRPRPRPNNDPRP, for which the “shrunken log2 fold change” value is -0.624.

On to RRIRTRPPRLPRPRPRPSLTPRP, for which the “shrunken log2 fold change” value was -0.452.

As for RRIRARPPRLPRPRPRPLLFPRP, the “shrunken log2 fold change” value turned out to be 0.212.

Take RRIRRRPPRLPRPRPRPIHDPRP: the “shrunken log2 fold change” value came to 0.169.

As to RRIRERPPRLPRPRPRPAASPRP, the “shrunken log2 fold change” value worked out at 0.141.

For RRIRRRPPRLPRPRPRPFWCPRP, the “shrunken log2 fold change” value is -0.18.

Consider RRIRFRPPRLPRPRPRPQWGPRP, for which the “shrunken log2 fold change” value was -0.139.

Turning to RRIRGRPPRLPRPRPRPQHLPRP, the “shrunken log2 fold change” value was -0.054.

For the sequence RRIRHRPPRLPRPRPRPWTTPRP, the “shrunken log2 fold change” value turned out to be 0.00489.

In the case of RRIRMRPPRLPRPRPRPNNLPRP, the “shrunken log2 fold change” value was -0.259.

As to RRIRGRPPRLPRPRPRPLGVPRP, the “shrunken log2 fold change” value is 0.835.

Turning to RRIRFRPPRLPRPRPRPDPDPRP, the “shrunken log2 fold change” value is -0.113.

RRIRKRPPRLPRPRPRPVMVPRP: the “shrunken log2 fold change” value came out at 0.315.

For the sequence RRIRYRPPRLPRPRPRPVTTPRP, the “shrunken log2 fold change” value was -0.209.

Regarding RRIRWRPPRLPRPRPRPRVVPRP, the “shrunken log2 fold change” value came to 0.655.

On to RRIRYRPPRLPRPRPRPTNIPRP, for which the “shrunken log2 fold change” value is -0.841.

For RRIRQRPPRLPRPRPRPGCTPRP, the “shrunken log2 fold change” value was -0.269.

For RRIRFRPPRLPRPRPRPMKAPRP, the “shrunken log2 fold change” value is 0.035.

Consider RRIRYRPPRLPRPRPRPTVVPRP, for which the “shrunken log2 fold change” value was -0.477.

For the sequence RRIRTRPPRLPRPRPRPMLSPRP, the “shrunken log2 fold change” value is -0.41.

In the case of RRIRIRPPRLPRPRPRPTQAPRP, the “shrunken log2 fold change” value was -0.00254.

Consider RRIRARPPRLPRPRPRPFAIPRP, for which the “shrunken log2 fold change” value was -0.239.

As to RRIRLRPPRLPRPRPRPKHAPRP, the “shrunken log2 fold change” value stood at 0.0823.

RRIRCRPPRLPRPRPRPGDVPRP: the “shrunken log2 fold change” value was -0.319.

As for RRIRLRPPRLPRPRPRPAALPRP, the “shrunken log2 fold change” value was determined as 0.182.

Take RRIRRRPPRLPRPRPRPTQTPRP: the “shrunken log2 fold change” value stood at 0.338.

As for RRIRKRPPRLPRPRPRPSHQPRP, the “shrunken log2 fold change” value is -0.146.

Consider RRIRRRPPRLPRPRPRPYCVPRP, for which the “shrunken log2 fold change” value is -0.462.

On to RRIRRRPPRLPRPRPRPLATPRP, for which the “shrunken log2 fold change” value was found to be 0.882.

Regarding RRIRWRPPRLPRPRPRPWHFPRP, the “shrunken log2 fold change” value is -0.265.

With RRIRDRPPRLPRPRPRPEVPPRP, the “shrunken log2 fold change” value came to 0.0916.

Take RRIRARPPRLPRPRPRPVMGPRP: the “shrunken log2 fold change” value was determined as 0.177.

On to RRIRARPPRLPRPRPRPNVSPRP, for which the “shrunken log2 fold change” value was -0.11.

Turning to RRIRSRPPRLPRPRPRPRQFPRP, the “shrunken log2 fold change” value worked out at 0.165.

Consider RRIRVRPPRLPRPRPRPGIKPRP, for which the “shrunken log2 fold change” value stood at 0.174.

With RRIRMRPPRLPRPRPRPIHGPRP, the “shrunken log2 fold change” value is 0.0579.

With RRIRDRPPRLPRPRPRPHQCPRP, the “shrunken log2 fold change” value is -0.0903.

Turning to RRIRDRPPRLPRPRPRPRANPRP, the “shrunken log2 fold change” value is 0.567.

Turning to RRIRWRPPRLPRPRPRPCMEPRP, the “shrunken log2 fold change” value was -0.0563.

Take RRIRLRPPRLPRPRPRPVLFPRP: the “shrunken log2 fold change” value is -0.0101.

In the case of RRIRQRPPRLPRPRPRPVMAPRP, the “shrunken log2 fold change” value is -0.38.

As for RRIRKRPPRLPRPRPRPMEEPRP, the “shrunken log2 fold change” value was found to be 0.371.

As for RRIRFRPPRLPRPRPRPDFQPRP, the “shrunken log2 fold change” value is -0.546.

With RRIRYRPPRLPRPRPRPRMRPRP, the “shrunken log2 fold change” value stood at 0.667.

For RRIRARPPRLPRPRPRPQYPPRP, the “shrunken log2 fold change” value was -0.414.

RRIRNRPPRLPRPRPRPVDAPRP: the “shrunken log2 fold change” value came to 0.154.

With RRIRLRPPRLPRPRPRPDSIPRP, the “shrunken log2 fold change” value is -0.0883.

As to RRIRRRPPRLPRPRPRPDNDPRP, the “shrunken log2 fold change” value was determined as 0.104.

As to RRIRSRPPRLPRPRPRPKWRPRP, the “shrunken log2 fold change” value stood at 0.29.

Take RRIRHRPPRLPRPRPRPNRSPRP: the “shrunken log2 fold change” value is -0.413.

As to RRIRGRPPRLPRPRPRPWQPPRP, the “shrunken log2 fold change” value was -0.12.

RRIRFRPPRLPRPRPRPVWDPRP: the “shrunken log2 fold change” value stood at 0.0852.

On to RRIRCRPPRLPRPRPRPKSSPRP, for which the “shrunken log2 fold change” value worked out at 0.122.

Take RRIRMRPPRLPRPRPRPHMPPRP: the “shrunken log2 fold change” value was -0.206.

As for RRIRLRPPRLPRPRPRPTLGPRP, the “shrunken log2 fold change” value was 0.222.

As for RRIRHRPPRLPRPRPRPTHVPRP, the “shrunken log2 fold change” value is 0.0105.

Regarding RRIRLRPPRLPRPRPRPNFFPRP, the “shrunken log2 fold change” value was found to be 0.247.

Take RRIRSRPPRLPRPRPRPGIAPRP: the “shrunken log2 fold change” value was determined as 0.409.

With RRIRRRPPRLPRPRPRPGNDPRP, the “shrunken log2 fold change” value was -0.0382.

Turning to RRIRRRPPRLPRPRPRPRYGPRP, the “shrunken log2 fold change” value worked out at 0.0155.

Regarding RRIRGRPPRLPRPRPRPVYLPRP, the “shrunken log2 fold change” value was -0.33.

As to RRIRGRPPRLPRPRPRPAYRPRP, the “shrunken log2 fold change” value is 0.181.

In the case of RRIRWRPPRLPRPRPRPFWPPRP, the “shrunken log2 fold change” value came out at 0.161.

Regarding RRIRQRPPRLPRPRPRPFFDPRP, the “shrunken log2 fold change” value was -0.0271.

Regarding RRIRMRPPRLPRPRPRPVMEPRP, the “shrunken log2 fold change” value is -0.00102.

As for RRIRERPPRLPRPRPRPFWAPRP, the “shrunken log2 fold change” value was determined as 0.084.

Turning to RRIRFRPPRLPRPRPRPEPAPRP, the “shrunken log2 fold change” value worked out at 0.669.

With RRIRDRPPRLPRPRPRPWILPRP, the “shrunken log2 fold change” value was -0.201.

On to RRIRCRPPRLPRPRPRPKCTPRP, for which the “shrunken log2 fold change” value is -0.0914.

For RRIRMRPPRLPRPRPRPHQCPRP, the “shrunken log2 fold change” value is -0.0247.

On to RRIRPRPPRLPRPRPRPFRGPRP, for which the “shrunken log2 fold change” value stood at 0.0377.

As to RRIRVRPPRLPRPRPRPQIKPRP, the “shrunken log2 fold change” value was -0.455.

Regarding RRIRPRPPRLPRPRPRPGNTPRP, the “shrunken log2 fold change” value is -0.241.

These data come from the supplement of paper PMC9112550, “Optimization of the antimicrobial peptide Bac7 by deep mutational scanning” (BMC Biology, 2022).
